B1: Basigin (Homo sapiens), P35613 (parent)
chain: MAAALFVLLGFALLGTHGASGAAGFVQAPLSQQRWVGGSVELHCEAVGSPVPEIQWWFEGQGPNDTCSQLWDGARLDRVHIHATYHQHAASTISIDTLVEEDTGTYECRASNDPDRNHLTRAPRVKWVRAQAVVLVLEPGTVFTTVEDLGSKILLTCSLNDSATEVTGHRWLKGGVVLKEDALPGQKTEFKVDSDDQWGEYSCVFLPEPMGTANIQLHGPPRVKAVKSSEHINEGETAMLVCKSESVPPVTDWAWYKITDSEDKALMNGSESRFFVSSSQGRSELHIENLNMEADPGQYRCNGTSSKGSDQAIITLRVRSHLAALWPFLGIVAEVLVLVTIIFIYEKRRKPEDVLDDDDAGSAPLKSSGQHQNDKGKNVRQRNSS
partner: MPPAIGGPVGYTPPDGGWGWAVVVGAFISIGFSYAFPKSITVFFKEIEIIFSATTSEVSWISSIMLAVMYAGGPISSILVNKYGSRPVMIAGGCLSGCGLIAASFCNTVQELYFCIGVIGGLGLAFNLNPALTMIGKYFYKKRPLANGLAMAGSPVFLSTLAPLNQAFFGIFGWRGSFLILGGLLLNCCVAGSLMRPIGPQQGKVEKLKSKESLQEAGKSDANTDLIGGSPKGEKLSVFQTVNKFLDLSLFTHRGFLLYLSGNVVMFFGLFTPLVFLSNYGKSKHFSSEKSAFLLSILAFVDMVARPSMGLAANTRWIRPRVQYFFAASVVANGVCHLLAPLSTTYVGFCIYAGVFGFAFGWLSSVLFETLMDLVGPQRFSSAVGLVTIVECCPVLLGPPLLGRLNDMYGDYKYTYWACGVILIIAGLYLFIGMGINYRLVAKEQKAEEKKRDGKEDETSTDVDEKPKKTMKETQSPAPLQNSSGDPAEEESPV
B2: Monocarboxylate transporter 1 (Rattus norvegicus (Rat)), P53987 (parent)
chain: B1 partner

Tests used:
mot1_rat Slc16a1, P53987 [1] = variants of: B1; details: with mot1_rat Slc16a1, P53987
mot1_rat Slc16a1, P53987 [2] = variants of: B1; details: with mot1_rat Slc16a1, P53987; remark: listed apart in the source
basi_human BSG, P35613 [3] = variants of: B2; details: with basi_human BSG
basi_human BSG, P35613 [4] = variants of: B2; details: with basi_human BSG; remark: listed apart in the source

Variant	effect of a mutation on the interaction (mot1_rat Slc16a1, P53987 [1])	effect of a mutation on the interaction (mot1_rat Slc16a1, P53987 [2])	effect of a mutation on the interaction (basi_human BSG, P35613 [3])	effect of a mutation on the interaction (basi_human BSG, P35613 [4])
E334Q	decreasing interaction strength	with no effect	–	–
E334R	decreasing interaction strength	–	–	–
R86E	–	–	with no effect	decreasing interaction strength
R86Q	–	–	with no effect	decreasing interaction strength
R196E	–	–	disrupting interaction strength	–
